The values below come from the DeepSol protein solubility set.

The series in a line: soluble on expression in E. coli; label from the status in PepcDB or PDB records.
“MGSDKIHHHHHHMELRGIWLTNVDSKILHSRDKIAEAMNFLVDTGFNVIFPVVWNKAFTLYPSQLMETTFGQEIDPLYKGRDPLAEVIIEAQRVGLKVIPWFEYGFVSSYKQNGGLILSKKPEWIARERKGNLLVKNGFEWMNALDEEVQNFLIDLVLEVVRNYDIDGIQGDDRMPAFPSEGGYDAKTVGRYRQQFSCHPPQNNKDHKWLQWRANILTDFLARLYGKVKAVKPNILVSMAPSFYKWGFNEYLQDYPTWINREVVDIVHPQLYRRDFSSYKSLVEQLVKQQFIATHLNKIFPGILIKIGSYRISMDYLLEAIAYNRSVGINGEVLFFYEGLRENNDVLAKALRKYVYN”: the “soluble on expression in E. coli” value is on record as “not soluble”.

In the case of “MGSDKIHHHHHHMELRHLRHFIVLARLKSFSKAANELHLAQPSLSRSIQKMEERLGASLLARDEKHFALTEYGRLVLAQGELIVSQLEYLESEIKTKQGLEKAKLVIGASPIPSNSIIGPAVGRFIRDNPDISLELKVESWSRLYKLLLKGELDMFIAETNATLLDQRDNVITQCLPQSQAIFCCRPHHPLTRLKTVYLPSLRDYPVGMPSAMPQLLRQRFEDLFEEDRHDFVGLVKYAQFQPIKSAIKECDMVVITPDISVREELASGELVALDVVGVPNIKASFSVVSMKNRRLSHSAEQFVDSLLTHSSAKAVGF”, the “soluble on expression in E. coli” value is “not soluble”.

Turning to “MGSDKIHHHHHHMEMMRDAVQFEPADSRVTRPSFWSSLPERWTSDVEETLVCCHVRQETHDVKSFFFHSPDGRAFVFEPGQFITLELEIEGETINRCYTISSSPARPHTLSITVKRVPGGKVSNWLHDNVRPGTPIRVLGPAGEFTCARHPARKYLFLSAGSGITPLMSMSRAHHDLGEDRDIVFVHSARTPDDIIFSRELDLIASNHANFRTSFVCESVGARTSWPGVTGFLSLPLLKLIAPDFMEREIFTCGPAPYMKAVRDLLDEGGFDRRRYHEESFSFETLTADGPADAPAPDTGVASAPHGIADMAAFSVSFAKSRREIVCSSGQHVLEAARQSGVRLPASCTQGMCGTCKVKLVSGQVEMKHNGGIRQREIDQGMVLLCCSKPLSDLVIDK”, the “soluble on expression in E. coli” value is “not soluble”.

“MGSDKIHHHHHHMEMNEVIIDENLKESIDLWTFMLPIISHRTTIRKNIHGYMPLHWHDELQFVVIIQGEARFQVNEEAIIVQEGDGLFINSGCLHMVEDGNGSNCVYICLNVPAQSIISRELYTAYVAPYVQATNLPYVLIPSSEMWGQNIIEATLNIHQCLEEQPPYYEMDITTKLTVIWKSLITNGFPLEYDQSAMIKNQRMKAMLQWIHLHYGENIRLDDIAKAGQLSRSECCRYFKRTLKMTPLQYVTDYRIQKSVTLLQQPESNVTDVAYQVGFNSTSYFIDQFRKAMNMTPLRYKKSKLERLID”: the “soluble on expression in E. coli” value was “not soluble”.

As to “MGSDKIHHHHHHMENTSYIALSRQTALWRQLDVVSNNLANMNTNGYQAEQTLFSEYLMNTRDSHFRLPEKLAYTQDAGTYRDLTAGPLEHTGNPLDLAINGEGYFEVEDGAGPAYTRGGRFTLDAEGKVVTADGRPLMTDAGTPLVIAPNEGEVTISATGTVSTENGPVGKLRLVSFEDEQKLRRIGGGLFDSGDQQANPITEPRIEQGMIEKSNVNPVVEMTRMIQVQRSYEAANKLIESENDRQLNAYAVLSGTK”, the “soluble on expression in E. coli” value was “not soluble”.

“MGSDKIHHHHHHMENVPLLQVNKMSKAFSNQLVLKEVNLQVERGDIYALVGGNGAGKSTLMKILTGLYSYDDGEMYVKGTKQQFANPSEAHRKGIYLIPQEPLIFPHMTIEENICIGLTEKKKKLRVQIEQLINSLGWDIDLNELGGSLSIAQQQLVEIVRGLIREAEILILDEPTSTLTTHEIKSLFVLMKSLQEKGIGMIYITHRFPEIFEIANKVAILRDGMIVSQGDVCDYTYDMLMEGLLPKGYKQKEKIEVVQETARTKKILEVIDITSHAFKNISFTVHADEIVGVAGIIGSGRTELAEAIFGLKTIKSGSILLEGKSIDACSLHKRLEKGLVYVPEDRARNGIFSIASVKENIAAASLQQNNRFFINQEKESALVNSFIEQFRIVVQNMNEELVSLSGGNQQKVVLAKYLACNPKIIILDEPTRGIDAKARIEVYETIEKMKREGLAILLISSDVEEIVQLANRVYVMRNGRFVSYMEKEQLSVNEVTRLAYGGVAE”: the “soluble on expression in E. coli” value was “not soluble”.

As for “MGSDKIHHHHHHMEPAELLKKIHQLPRLPKAVSELLEAVNNDQISIKDIAAKVSQDPLMSARVLRLANSSYFGANRKVASIDAAVVRLGMQTLRNLVIASAVVGAVPKAEGVDLGGFWGATFEVALYSQELAKHTHIPPEEAFTCGILHNIGDLFIATAAPDAAKAIDKAVMAGADKQETELKILDFDAATIGALLAQSWRFTDKLAAGIANQYQPKEAELYSDLAGLMYMAKALFSGWDEIEDDAITGWLSVQAMNAGLEMDMSDLAADLLKVKGSGLEMGQLLA”, the “soluble on expression in E. coli” value is reported as “not soluble”.

In the case of “MGSDKIHHHHHHMEQDTSMITWHHSPAHLFVPNAFYIVTASTLCHQPLFNSPQKLHILQSTLFEIMQAYNWRLQAWAVFSNHYHFIAQSPEDSSSLKPLIQRFHSQTARAINVLDGSKGRKVWFQYWDTCLTYEQSYLARLNYVHNNPVKHGASRECRAVSLLFSYMV”, the “soluble on expression in E. coli” value was “not soluble”.

Consider “MGSDKIHHHHHHMEQLQKRKIYDTTASNASTGILNGKSSNVLNWDDVRFSWAYPLYKNMLANFWTPFEINMSHDAKQFPTLTETEQEAFKKIIGLLAFLDSVQTDYSMRAAEYLTDSSLAALMSVLSFQEVVHNQSYSYVLSSLVPKATQDEIFEYWKHDDVLKERNEFIIDGYEKFVDNPTPKTFLESIVYDVILEGLNFYSGFAFFYNLARNQKMVSTSTMINYINRDEQLHVYLFTNIFKELLVEFPELNTEETKTFVKTTLMKAADLEKDWFRYIIGDKIPGINPEDMETYISFIANKRAVQLGMEKPYPEIKHNPMKWIRAYEDVNSGKSDFFEQKSRQYAKVSADNGFDEL”, for which the “soluble on expression in E. coli” value is given as “not soluble”.

For “MGSDKIHHHHHHMEREKVELFKEVLKKLHKGEDVESLKKQFGELLSQIPPFEIPVIEQELLKSGEIDVRDIIKMCDLHVEFFRGAVSEAGREIEKLPNGHPLRTLYEENKQILKDAEALSLLASSMFSLPKDDPRRKQFYEKLVQHVSELHRIGLTHYTREEMLIFPYIERRGITAVPTVLWSKHDETRLKIRLLLNLLKKEESDERLKEEALELSRMLSDMVFRENNILYPTLKVLLTEGEWKAIKMLEKDIGYYKIEVTEEWETPEKPLLPHRNCLRRPIPFRGLGGSRHVYHLQIQ”, the “soluble on expression in E. coli” value is on record as “not soluble”.

On to “MGSDKIHHHHHHMETLILTQEEVESLISMDEAMNAVEEAFRLYALGKAQMPPKVYLEFEKGDLRAMPAHLMGYAGLKWVNSHPGNPDKGLPTVMALMILNSPETGFPLAVMDATYTTSLRTGAAGGIAAKYLARKNSSVFGFIGCGTQAYFQLEALRRVFDIGEVKAYDVREKAAKKFVSYCEDRGISASVQPAEEASRCDVLVTTTPSRKPVVKAEWVEEGTHINAIGADGPGKQELDVEILKKAKIVVDDLEQAKHGGEINVAVSKGVIGVEDVHATIGEVIAGLKDGRESDEEITIFDSTGLAIQDVAVAKVVYENALSKNVGSKIKFFRI”, for which the “soluble on expression in E. coli” value was “soluble”.

Consider “MGSDKIHHHHHHMETREAIFGRRSIRKYLDKPIEPEVLQDILEGAVMAPSAVNNQPWYFLAIKSQEQMEKLRGIFQEVSVKTKAVLEKRFPNNPEVVSETLGFLTSLGNARVCVLVFLLKPSKDYDIIAVESTSAAIQNLCLVAYDKGIGSCWMTAPLSTGFGDVLEKTFAPGKGKFIAAVTLGYPAVSPQAPKRKAGRYEII”, for which the “soluble on expression in E. coli” value is given as “not soluble”.

As to “MGSDKIHHHHHHMETVQYDYKQILQRIVAEIKSSRIQVARKITSATMELYWNIGKELSAQHLSKGYGAQVVEMLASDLQKEFPGTTGFSSRNLWEMKRFYERYCGESRKLQQSVAVLPWGHNLLLMSKCKNPEEIYFYATRSTELGWTRDVLLNYIKADAFSTREEQPKLHNFKETLPECLQEQAEEMLKSRYNLEFLGITKPILELELERRLVDKIKTFLLEMGKGFSFIGNQYRLVLEDKEYFVDMLFFNRCTRSLIALELKIGSFQPEYVGKMNFYLNLLDRQVKMPDENPSIGIILCADRNNVEVEVALQGSTAPIGVSEYSYLIPQKQIKELINNELSGNKE”, the “soluble on expression in E. coli” value is reported as “not soluble”.

For “MGSDKIHHHHHHMEVTRTDKAVTLRWENEEVSEGTLVFVSSSPSLEANSEPVFKVSNAAKHYTFETKDIPVYFFLQAPNGDKRVVSERILPLESVFNFRDMGGYKTKHGHHVKWGKLYRSSNLVNINQADAALLQKLHIKWICDLRSSSEVQAQPTPEIQGVLNKHIPIGTAKNEKTTLPVSNDKAIYEPLMGESYRVFVQSVDGFKEIFSEILTDAKAGLPFVFHCTAGKDRTGVLAALLLTLLDVPEKTIFDDYAITNRYQDNILQEMGGIVSLFSNGNEKIDLEAFRPMAEARPEYLKIAFDEMKKQFGSVDGYLEKGIGITAEEKAIIQQQLLE”, the “soluble on expression in E. coli” value was “not soluble”.

As to “MGSDKIHHHHHHMEWQAEQAYNHLPPLPLDSKLAELAETLPILKACIPARAALAELKQAGELLPNQGLLINLLPLLEAQGSSEIENIVTTTDKLFQYAQEDSQADPMTKEALRYRTALYQCFTQLSNRPLCVTTALEICSTIKSVQMDVRKVPGTSLTNQATGEVIYTPPAGESVIRDLLSNWEAFLHNQDDVDPLIKMAMAHYQFEAIHPFIDGNGRTGRVLNILYLIDQQLLSAPILYLSRYIVAHKQDYYRLLLNVTTQQEWQPWIIFILNAVEQTAKWTTHKIAAARELIAHTTEYVRQQLPKIYSHELVQVIFEQPYCRIQNLVESGLAKRQTASVYLKQLCDIGVLEEVQSGKEKLFVHPKFVTLMTKDSNQFSRYAL”, the “soluble on expression in E. coli” value is given as “not soluble”.

As to “MGSDKIHHHHHHMFDFKELEAFVWVVRLGSFRKGAAKLYLTQPSISDRITRLEDSVGESLLDRSARPVQPTLRGREFFTYAERLLEGREEAMRLFQDEESFSGTLRLGVIETIASSWCPTFMRRLAERYPQLTIELTVDISPFLHQRLAENDLDMLFAMDGVAPGLCAIQTPLCTYEMGMFAAPEMAATLQRGGPAAFAETAFISFSKQARPYRELVAYLTALGIDTPRIHRTSTLMTIMRMSIEGVGIGVLPVATVRDAVESGSLVRLTLEEPLPPMIYDAIWRSANYPSFCASVARLAKQCATDYAQDHGKLSSPASMKGYVDT”, the “soluble on expression in E. coli” value is “not soluble”.

Consider “MGSDKIHHHHHHMFDPETLRTFIAVAETGSFSKAAERLCKTTATISYRIKLLEENTGVALFFRTTRSVTLTAAGEHLLSQARDWLSWLESMPSELQQVNDGVERQVNIVINNLLYNPQAVAQLLAWLNERYPFTQFHISRQIYMGVWDSLLYEGFSLAIGVTGTEALANTFSLDPLGSVQWRFVMAADHPLANVEEPLTEAQLRRFPAVNIEDSARTLTKRVAWRLPGQKEIIVPDMETKIAAHLAGVGIGFLPKSLCQSMIDNQQLVSRVIPTMRPPSPLSLAWRKFGSGKAVEDIVTLFTQRRPEISGFLEIFGNPRS”, for which the “soluble on expression in E. coli” value is “not soluble”.

For the sequence “MGSDKIHHHHHHMFEKRHRITLLFNANKAYDRQVVEGVGEYLQASQLEWDIFIEEDFRARIENIKEWLGDGVIADYDDPEIEKLLADVHVPIVGVGGSYHQPEQYPPVHYIATDNAALVESAFLHLKEKGVHRFAFYGLPASSGKRWAVEREYAFCQLVAKEKYRGVVYQGLETAPENWQHAQNRLADWLQTLPPQTGIIAVTDARARHVLQACELLHIPVPEKLCVIGIDNEELTRYLSRVALSSVAQGTRQMGYQAAKLLHRLLNNEALPLQRQLIPPMRVVERRSTDYRSLNDPSVIQAMHYIRNNACKGIKVEQVLDAVGISRSNLEKRFKEEVGETIHTVIHSEKLEKARSLLVSTSLSINEISQMCGYPSLQYFYSVFKKEYDVTPKEYRDRHSEVML”, the “soluble on expression in E. coli” value is “not soluble”.
